Results on two molecules are retold here after patent publication US12534533B2, “Anti-chemokine like receptor 1 humanized antibodies and their therapeutic applications” (OSE IMMUNOTHERAPEUTICS, priority 2019, dated 2026).

In data set [1] the test system is PMN from healthy volunteers. The data set can be described thus: Percentage of dead PMN (mortality of neutrophils) on coated antibodies. Type of data set: cell-based, human. To be noted: coated Ab at 10 μg/mL, 24 h; FIG. 26, FIG. 36. As to the method:
[…] Mortality of PMN was analyzed by incubating PMN with specific markers of the mortality and viability and then counted by picture analysis.
FIG. 36—Increase of dead PMN neutrophils in vitro with anti-ChemR23 antibodies coated. PMN from healthy volunteers were incubated in culture medium with coated HEF-LDT52S, HEF-LEF and HDLD antibody variants at 10 μg/mL for 24 h and stained either with a dead/viability kit (LIVE/DEAD (Invitrogen)). The percentages of positive cells were obtained by analyzing the pictures with Fiji software. Isotype control was added as control.
PMN from healthy volunteers were incubated in culture medium with coated Ab at 10 μg/mL for 24 h or 5 h and stained either with a dead/viability kit (LIVE/DEAD (Invitrogen)) or a specific marker of reactive oxygen species (ROS) respectively. The percentages of positive cells were obtained by analyzing the pictures with ImageJ software.
PMN from healthy volunteers were incubated in culture medium with coated HEF-LDT52S, HEF-LEF and HDLD antibody variants at 10 μg/mL for 24 h and stained either with a dead/viability kit (LIVE/DEAD (Invitrogen)). The percentages of positive cells were obtained by analyzing the pictures with Fiji software. Isotype control was added as control.

Data set [2] can be described thus: Stability assay (7 days at 4° C. or 37° C.; ELISA and gel filtration). Type of data set: physicochemical. The conditions noted are these: after 7 days at 37° C.; gel filtration; FIG. 34B. As for the experimental part: FIG. 34—A. Binding of purified antibodies incubated 7 days at 4° C. or 37° C. on human ChemR23 ELISA assay. B. SEC profile by gel filtration chromatography of purified antibodies incubated 7 days at 37° C. Each purified humanized anti-ChemR23 antibody (HALA, HDLD, HD-LDT52S, HEF-LDT52S, HEF-LEF) were incubated for 7 days at 4° C. or 37° C. After 7 days, the binding of purified antibodies was analyzed by ELISA assay and the aggregate formation was analyzed by gel filtration (Superdex 200 10/300GL, GeHealthcare).
Each purified humanized anti-ChemR23 antibody (HALA, HDLD, HD-LDT52S, HEF-LDT52S, HEF-LEF) were incubated for 7 days at 4° C. or 37° C. After 7 days, the binding of purified antibodies was analyzed by ELISA assay and the aggregate formation was analyzed by gel filtration (Superdex 200 10/300GL, GeHealthcare).
(In general: An ELISA detects its analyte on a solid surface through an enzyme-linked reagent.)

Data set [3] deals with T1, Biot-C7 peptide (human ChemR23 peptide, SEQ ID No. 60) (Homo sapiens, UniProt Q99788).
T1 construct: purchased synpeptide; host or cells: chemical synthesis
T1 sequence (Q99788 275-307 limits assumed): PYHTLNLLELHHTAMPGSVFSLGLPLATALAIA
Kind of data set: activity ELISA assay, binding of biotinylated C7 peptide. To be noted: compared to wild-type 2G1; FIG. 23, FIG. 33. An excerpt: FIG. 23. Binding recognition of C7 peptide by humanized anti-CMKLR1 derived from 2G1. Binding of C7biot in the supernatant of CHO cells transfected with different combinations of heavy and light chains (VHWT+VLWT: combination of SEQ ID No. 37 and SEQ ID No. 49; HCLC: combination of SEQ ID No. 42 and SEQ ID No.52; HDLC: combination of SEQ ID No. 43 and SEQ ID No.52; HCLD: combination of SEQ ID No. 42 and SEQ ID No.53; HDLD: combination of SEQ ID No. 43 and SEQ ID No.53).
FIG. 24. ED50 of anti-CMKLR1 derived from 2G1 antibody. 2G1 wt: HALA: combination of SEQ ID No. 41 and SEQ ID No. 50; combination of SEQ ID No. 37 and SEQ ID No. 49; HCLC: combination of SEQ ID No. 42 and SEQ ID No.52; HDLC: combination of SEQ ID No. 43 and SEQ ID No.52; HCLD: combination of SEQ ID No. 42 and SEQ ID No.53; HDLD: combination of SEQ ID No. 43 and SEQ ID No.53.
FIG. 33—Binding of purified antibodies on human ChemR23 peptide by ELISA assay (A), with ED50 concentration (ng/ml) (B). For activity ELISA assay, donkey anti-human IgG, Fc specific (Jackson Immunoresearch; USA; reference 709-005-098) was immobilized on plastic at 1.3 μg/ml in borate buffer (pH9) and purified antibody was added to measure binding in BSA1% buffer, compared to wild-type 2G1.
For activity ELISA assay, donkey anti-human IgG, Fc specific (Jackson Immunoresearch; USA; reference 709-005-098) was immobilized on plastic at 1.3 μg/ml in borate buffer (pH9) and purified antibody were added to measure binding in BSA1% buffer, compared to wild-type 2G1.
For activity ELISA assay, donkey anti-human IgG, Fc specific (Jackson Immunoresearch; USA; reference 709-005-098) was immobilized on plastic at 1.3 μg/ml in borate buffer (pH9) and purified antibody was added to measure binding in BSA1% buffer, compared to wild-type 2G1.

For data set [4], the system named is CCR7 expression at the surface of pro-inflammatory macrophages M1. The data set can be described thus: CCR7 expression on M1 macrophages with coated antibodies. Type of data set: cell-based, human. The conditions noted are these: antibody coated on plate, 48 h, flow cytometry; vs isotype control; FIG. 25, FIG. 35. As to the method:
FIG. 25. Inhibition of CCR7 expression on M1 macrophages cells in vitro with anti-ChemR23 antibodies coated. 2G1 and all humanized 2G1 variants (HALA, HCLC, HCLD, HDLC and HDLD) were immobilized on plate. Isotype control were added as controls. Two isotypes which prevent FcRγ binding, i.e., 2G1-N297A (2G1 wt mutated in N297A to reduce FcγR binding), and 2G4 (wt with isotype IgG4mutated in S228P to stabilise hinge region) were also added. Pro-inflammatory macrophages M1 were added on coated plate for 48 h, and CCR7 expression at the surface of the macrophages was measured by flow cytometry.
FIG. 35—Inhibition of CCR7 expression on M1 macrophages cells in vitro with anti-ChemR23 antibody coated. The humanized 2G1 variant HEF-LD-T52S was immobilized on plate. Isotype control were added as controls. Pro-inflammatory macrophages M1 were added on coated plate, and CCR7 expression at the surface of the macrophages was measured by flow cytometry.
MATERIAL AND METHODS. […]
RESULTS. […] Pro-inflammatory macrophages M1 were added on coated plate for 48 h, and CCR7 expression at the surface of the macrophages was measured by flow cytometry.
The humanized 2G1 variant HEF-LD-T52S was immobilized on plate. […] Pro-inflammatory macrophages M1 were added on coated plate for 48 h, and CCR7 expression at the surface of the macrophages was measured by flow cytometry. […]
On the technique in general: Flow cytometry measures light scatter and fluorescence of single cells or particles in a stream.

B1: HDLD: humanized 2G1 variant: combination of SEQ ID No. 43 and SEQ ID No. 53 (antibody, V domains shown)
VH: EVQLVESGGGLVQPGGSLRLSCAASGFTFSSYAMSWVRQAPGKGLELVATINRYGGSTYYAASVKGRFTISRDNSKNTLYLQMNSLRAEDTAVYYCPKLIYYGNEGDSWGQGTLVTVSS
VL: AIQLTQSPSSLSASVGDRVTITCRASQSVSFLHWYQQKPGKAPKRWIYDATKLTSGVPSRFSGSGSGTDFTLTISSLQPEDFATYYCQQWQSKPPLTFGGGTKVEIK
In the case of B1, the “mortality of PMN (percentage of dead PMN)” value in data set [1] is reported as “accelerate the death of PMN”. In addition, in data set [2], the percentage of aggregate result is “did not change”. In addition, the “binding activity to antigen-specific peptides (C7 peptide)” value in data set [3] is “even better than the germline antibody HALA and the wild type antibody 2G1”.

B2: HEF-LDT52S: humanized 2G1 variant optimized to reduce immunogenicity: HEF (SEQ ID NO: 91) with LD-T52S (SEQ ID No. 93) (antibody, V domains shown)
VH: EVQLVESGGGLVQPGGSLRLSCAASGFTFSSYAMSWVRQAPGKGLELVSTISGSGGSTYYAASVKGRFTISRDNSKNTLYLQMNSLRAEDTAVYYCPKLIYYGNEGDSWGQGTLVTVSS
VL: AIQLTQSPSSLSASVGDRVTITCRASQSVSFLHWYQQKPGKAPKRWIYDASKLTSGVPSRFSGSGSGTDFTLTISSLQPEDFATYYCQQWQSKPPLTFGGGTKVEIK
For B2, the “expression of CCR7 at the surface of pro-inflammatory macrophages (M1)” value in data set [4] was “able to decrease expression of CCR7”. In addition, the “mortality of PMN (percentage of dead PMN)” value in data set [1] is recorded as “accelerate the death of PMN”. In data set [2], the percentage of aggregate result is reported as “did not change”. In addition, the “binding activity to antigen-specific peptides (C7 peptide)” value in data set [3] was “high binding activity”.
